# According to US20190153097A1:
# Biological target: Cynomolgus/Rhesus CTLA-4 (cynomolgus/rhesus)
# Assay: ELISA with Cynomolgus/Rhesus CTLA-4 titrated (said to be similar to the mouse CTLA-4 ELISA with coated antibodies)
substance,measurement,value
ipilimumab (human anti-huCTLA-4 marketed as Yervoy) (antibody),EC50 (read off the curve),0.2 nM
